The source of these data is patent publication US20250236663A1 (NEURACLE SCIENCE, published 2025).

In assay [1] the target is T1, FAM19A5 fragment 5 mutant peptide F5-1 (#1) (human).
T1 construct: The entry already carries the alanine substitution and Ser for Cys; also called mutant peptide #1
T1 peptide: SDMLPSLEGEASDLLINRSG
In words: ELISA on the coated F5 mutant peptide. As for the experimental part: (§1) Overlapping peptide fragments (F1-F6, see FIG. 9) of the human FAM19A5 protein were synthesized and conjugated to BSA. Binding of the different anti-FAM19A5 antibodies to the BSA-conjugated peptide fragments F1-F6 was determined by Western blot analysis or ELISA assay. For the Western blot analysis, BSA-conjugated FAM19A5 fragments F1-F6 were separated by SDS polyacrylamide gel electrophoresis and transferred to a nitrocellulose membrane by the standard procedure. The membrane was incubated with the anti-FAM19A5 antibody (e.g., 1-65, 2 μg/ml, 1-65-scFv-rabbit Fc-SSS), and the antigen-antibody complexes were detected with the appropriate secondary antibody conjugated with horse-radish peroxidase (anti-rabbit IgG (Fc specific)-HRP, 1:4000 dilution). For the ELISA assay, the following protocol was used. FAM19A5 fragment F1-F6 (diluted to 1 μg/mL in 50 mM carbonate buffer (Biosesang) or to 20 μg/mL for high concentration analysis) were used to coat the wells of 96-well immuno plates (Thermo Scientific) (100 μL/well) overnight at 4° C. and then subsequently washed twice in 1×PBS. The plates were then blocked with the blocking buffer (100 μL/well) for 1 hour at room temperature. During the 1-hour incubation, the relevant anti-FAM19A5 antibodies were diluted to 1 μg/mL (or 20 μg/mL for high concentration analysis) in the diluent buffer. Once the plates were washed (2× using 1×PBS), the diluted anti-FAM19A5 antibodies were added to the appropriate wells, and the plates were incubated at room temperature for 1 hour. The plates were subsequently washed for a total of five times using the washing buffer. Next, the ODP substrate (prepared by dissolving one ODP tablet (O-phenylenediamine Dihydrochloride, Thermo) into 9 mL of sterilized deionized water and 1 mL of 10× stable Peroxide Stable buffer (Theromo)) was added to each of the wells, and the color change reaction was allowed to occur for 10 minutes. This reaction was stopped by adding 100 μL of 2N H2SO4 (Daejung) to the wells. The absorption value of each of the wells was detected at 492 nm using a 96-well microplate reader (Molecular Device).
(§2) Next, to identify the specific amino acid residues within the epitope fragment F5 that the 1-65 and P2-C12 antibodies bind to, different amino acid residues of the F5 fragment were replaced with alanine as shown in Table 9 (below).
(In general: In an ELISA, binding on a coated surface is turned into a signal by an enzyme label.)

Assay [2] has as its target T2, FAM19A5 fragment 5 mutant peptide F5-2 (#2) (human).
T2 construct: The entry already carries the alanine substitution and Ser for Cys; also called mutant peptide #2
In words: ELISA on the coated F5 mutant peptide. As for the experimental part: as §1, §2

Assay [3] has as its target T3, FAM19A5 fragment 5 mutant peptide F5-5 (#5) (human).
T3 construct: The entry already carries the alanine substitution and Ser for Cys; also called mutant peptide #5
T3 peptide: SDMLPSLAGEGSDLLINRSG
Description: ELISA on the coated F5 mutant peptide. The method, then: as §1, §2

The target in assay [4] is T4, FAM19A5 fragment 5 mutant peptide F5-4 (#4) (human).
T4 construct: The entry already carries the alanine substitution and Ser for Cys; also called mutant peptide #4
Description: ELISA on the coated F5 mutant peptide. The method, then:
as §1, §2

The target in assay [5] is T5, FAM19A5 fragment 5 mutant peptide F5-8 (#8) (human).
T5 construct: The entry already carries the alanine substitution and Ser for Cys; also called mutant peptide #8
T5 peptide: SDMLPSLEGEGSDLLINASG
Description: ELISA on the coated F5 mutant peptide. As for the experimental part: as §1, §2

In assay [6] the target is T6, FAM19A5 fragment 5 mutant peptide F5-7 (#7) (human).
T6 construct: The entry already carries the alanine substitution and Ser for Cys; also called mutant peptide #7
Description: ELISA on the coated F5 mutant peptide. As for the experimental part:
as §1, §2

The target in assay [7] is T7, FAM19A5 fragment 5 mutant peptide F5-6 (#6) (human).
T7 construct: The entry already carries the alanine substitution and Ser for Cys; also called mutant peptide #6
In words: ELISA on the coated F5 mutant peptide. The method, then: as §1, §2

The target in assay [8] is T8, FAM19A5 fragment 5 mutant peptide F5-3 (#3) (human).
T8 construct: The entry already carries the alanine substitution and Ser for Cys; also called mutant peptide #3
Description: ELISA on the coated F5 mutant peptide. As for the experimental part: as §1, §2

The next assay concerns the target T9, FAM19A5 mutant M6 (human).
T9 construct: FAM19A5 with region 6 replaced by the consensus of FAM19A1-4; The entry already carries the changes
T9 chain: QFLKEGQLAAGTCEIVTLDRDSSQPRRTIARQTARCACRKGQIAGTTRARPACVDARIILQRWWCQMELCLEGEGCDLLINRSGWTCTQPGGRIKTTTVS
In words: ELISA on phage-displayed FAM19A5 mutants; y axis without label.

In the next assay the target is T10, FAM19A5 mutant M8 (human).
T10 construct: FAM19A5 with region 8 replaced by the consensus of FAM19A1-4; The entry already carries the changes
T10 chain: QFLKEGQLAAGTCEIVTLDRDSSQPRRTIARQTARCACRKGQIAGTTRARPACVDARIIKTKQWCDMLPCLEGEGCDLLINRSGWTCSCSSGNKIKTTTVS
The description is as above.

Another assay concerns the target T11, FAM19A5 mutant M7 (human).
T11 construct: FAM19A5 with region 7 replaced by the consensus of FAM19A1-4; The entry already carries the changes
T11 chain: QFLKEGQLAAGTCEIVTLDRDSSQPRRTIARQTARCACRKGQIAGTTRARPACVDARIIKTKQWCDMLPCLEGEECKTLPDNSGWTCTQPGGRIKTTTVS
Described as above.

T2 sequence (peptide, as listed by the source mutant): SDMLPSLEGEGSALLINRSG
T8 sequence (peptide, as listed by the source mutant): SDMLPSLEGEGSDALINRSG
T4 sequence (peptide, as listed by the source mutant): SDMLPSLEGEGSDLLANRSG
T6 sequence (peptide, as listed by the source mutant): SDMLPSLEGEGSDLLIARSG
T7 sequence (peptide, as listed by the source mutant): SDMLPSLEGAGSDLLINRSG

B1: chimeric anti-FAM19A5-IgG2/4 monoclonal antibody (1-65) (antibody, V domains shown)
VH: AVTLDESGGGLQTPGGALSLVCKASGFTFSSYQMGWVRQAPGKGLEWVGVINKSGSDTSYGSAVKGRATISRDNGQSTVRLQLNNLRAEDTGTYFCAKGSASYITAATIDAWGHGTEVIVSS
VL: ALTQPSSVSANPGETVKITCSGGGSSGYGYGWYQQKSPSSAPLTVIYWNDKRPSDIPSRFSGSKSGSTHTLTITGVQAEDEAVYFCGNDDYSSDSGYVGVFGAGTTLTVL
notes: Chicken-derived variable domains; also called anti-FAM19A5 antibody 1-65; Anti-FAM19A5 (1-65)
B1: the “O.D (492nm)” value in assay [1] is 1.5; in [2] it was 0.155; in [3] it was 1.57; in assay [4], 0.688; in [5], 0.181; in assay [6], 1.64. Besides, the figures for the “O.D (492nm)” value in assay [7] and in assay [8] were 1.41 and 0.15, respectively. Also, the binding result (in assay [2]; in [5]; in [8]; with FAM19A5 mutant M6; with FAM19A5 mutant M8; with FAM19A5 mutant M7) was “no binding” in each case.
